Laboratory results: patent publication US20180369403A1 (University of Texas, published 2018)
Several values for one entry are separate records, joined by “and”; a condition that tells them apart may be missing. Equal entries are not always repeated. Each block holds one binder with its values, some of them ahead of it.

Columns and labels:
[1] = target: T1, human LGR4 (leucine-rich repeat-containing G-protein coupled receptor 4) (human, UniProt Q9BXB1 25-951); test: fluorescence cell binding, HEK293 cells overexpressing LGR4, Alexa-488 anti-rat IgG
T1 construct: whole, on cells; also called GPR48; HEK293-LGR4-human

[2] = target: T1, human LGR4 (leucine-rich …); test: cell-based or functional assay
[3] = target: T1, human LGR4 (leucine-rich …); test: binding to live HEK293 cells stably expressing human LGR4
mouse LGR4 = target: T2, mouse LGR4 (mouse, UniProt A2ARI4 25-951); test: Western blot, lane HEK293-LGR4-mouse
T2 construct: whole, on cells; also called native mouse receptor; HEK293-LGR4-mouse

LGR5 = target: T3, LGR5 (UniProt O75473 22-561, limits assumed); test: specificity cross check analysis
T3 sequence (looked up): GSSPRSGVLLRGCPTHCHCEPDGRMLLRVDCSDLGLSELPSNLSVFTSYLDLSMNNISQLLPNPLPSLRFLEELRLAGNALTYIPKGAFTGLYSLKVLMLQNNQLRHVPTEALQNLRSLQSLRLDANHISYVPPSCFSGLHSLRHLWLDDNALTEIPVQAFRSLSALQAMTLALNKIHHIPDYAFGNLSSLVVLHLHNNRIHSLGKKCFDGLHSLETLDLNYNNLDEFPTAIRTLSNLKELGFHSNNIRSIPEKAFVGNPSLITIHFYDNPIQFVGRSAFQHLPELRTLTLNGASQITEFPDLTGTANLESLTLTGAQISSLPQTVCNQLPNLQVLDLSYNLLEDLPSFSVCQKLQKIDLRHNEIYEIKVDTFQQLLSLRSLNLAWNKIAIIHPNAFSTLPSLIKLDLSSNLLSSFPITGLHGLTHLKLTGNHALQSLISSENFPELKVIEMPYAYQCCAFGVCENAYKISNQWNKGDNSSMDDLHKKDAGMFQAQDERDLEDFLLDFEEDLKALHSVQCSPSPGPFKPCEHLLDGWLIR

LGR6 = target: T4, LGR6 (UniProt Q9HBX8 25-567, limits assumed); test: specificity cross check analysis
T4 sequence (looked up): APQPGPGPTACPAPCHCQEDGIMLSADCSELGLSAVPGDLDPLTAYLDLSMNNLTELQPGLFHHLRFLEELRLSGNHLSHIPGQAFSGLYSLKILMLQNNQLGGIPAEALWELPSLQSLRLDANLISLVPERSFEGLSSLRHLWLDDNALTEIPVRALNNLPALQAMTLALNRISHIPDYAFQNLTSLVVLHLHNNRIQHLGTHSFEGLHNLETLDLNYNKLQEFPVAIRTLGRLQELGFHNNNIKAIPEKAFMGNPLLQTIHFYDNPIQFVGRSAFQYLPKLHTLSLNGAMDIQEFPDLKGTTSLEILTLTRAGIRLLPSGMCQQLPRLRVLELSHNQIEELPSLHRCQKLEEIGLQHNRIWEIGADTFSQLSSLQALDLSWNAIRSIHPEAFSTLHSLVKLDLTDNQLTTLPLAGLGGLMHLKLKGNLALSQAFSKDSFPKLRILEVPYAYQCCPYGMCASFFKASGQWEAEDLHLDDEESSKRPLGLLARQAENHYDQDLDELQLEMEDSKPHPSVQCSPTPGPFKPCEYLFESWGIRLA

Kd [1]: 0.1 µg/mL
B1: anti-LGR4 monoclonal antibody 3G6 (antibody, V domains shown)
VH: QVQLQQSGAELVKPGSSVKISCKASGYTFTSNFMHWIKQQPGNGLEWIGWIYPGDGDTDYNQKFIGKATLTADKSSSTAYMQLSSLTSEDSAVYFCSRSNSGYNWFAYWGQGTLVTVSS
VL: DIVLTQSPPVLSASVGDRVTLSCKASQNINKNLDWYQQKHGEAPKLLIYYTNNLQTGIPSRFSGSGSGTDYTLTIRSLQPEDVATYYCYQYRTGWTFGGGTKLELKR
notes: Rat monoclonal antibody; also called clone 3G6

B2: 8D2-MC-VC-PAB-MMAE (antibody, V domains shown)
VH: QVQLQQSGAELVKPGASVNLSCKTSGYTFSTSYMSWFKQIPGQTIEWVGLIYVGAGGPTYNQKFKGKASLTVDTSSSTAYMDLSSLTAEDSAVYFCARVRGYAMDAWGQGTSVTVSS
VL: DIVLTQSPATLSVTPGESVSLSCRASQDISTSIHWYQQKSNESPRLLIKYASQSISGIPSRFSGGGSGTDFTLTINRVESEDFSVYYCQQSYSLPVTFGSGTKLELKR
modifications: MMAE (auristatin) attached through an MC-VC-PAB (maleimidocaproyl-valine-citrulline-p-aminobenzyloxycarbonyl) linker; sites and chain of attachment not stated
IC50, cell viability of IGROV1 cells (CelltiterGlo, 4 days) [2]: ~0.3 µg/mL | IC50, cell viability of OVCAR3 cells (CelltiterGlo, 4 days) [2]: ~0.03 µg/mL | IC50, cell viability of SKOV3 cells (CelltiterGlo, 4 days) [2]: 2.4 µg/mL

Kd [3]: ~0.1 µg/mL and ~0.7 nM | binding result (mouse LGR4): binds | binding result (LGR5): no binding | binding result (LGR6): no binding | Kd [1]: 0.5 µg/mL
B3: anti-LGR4 monoclonal antibody 8D2 (antibody, V domains shown)
VH: B2 VH
VL: B2 VL
notes: also called mAb 8D2; LGR4-mAb-8D2
